Data on one molecule can be found in US20200190151A1 (Scripps Research, published 2020).

No end group written: not given here.

This assay deals with T1, Kv1.3 (human potassium voltage-gated channel subfamily A member 3) (human, UniProt P22001 1-575).
T1 construct: whole, on cells
In words: immunofluorescence staining of Kv1.3 expressing HEK293F cells, flow cytometry. For orientation: In flow cytometry, cells or beads pass a laser one at a time.

T1 sequence (P22001 whole entry): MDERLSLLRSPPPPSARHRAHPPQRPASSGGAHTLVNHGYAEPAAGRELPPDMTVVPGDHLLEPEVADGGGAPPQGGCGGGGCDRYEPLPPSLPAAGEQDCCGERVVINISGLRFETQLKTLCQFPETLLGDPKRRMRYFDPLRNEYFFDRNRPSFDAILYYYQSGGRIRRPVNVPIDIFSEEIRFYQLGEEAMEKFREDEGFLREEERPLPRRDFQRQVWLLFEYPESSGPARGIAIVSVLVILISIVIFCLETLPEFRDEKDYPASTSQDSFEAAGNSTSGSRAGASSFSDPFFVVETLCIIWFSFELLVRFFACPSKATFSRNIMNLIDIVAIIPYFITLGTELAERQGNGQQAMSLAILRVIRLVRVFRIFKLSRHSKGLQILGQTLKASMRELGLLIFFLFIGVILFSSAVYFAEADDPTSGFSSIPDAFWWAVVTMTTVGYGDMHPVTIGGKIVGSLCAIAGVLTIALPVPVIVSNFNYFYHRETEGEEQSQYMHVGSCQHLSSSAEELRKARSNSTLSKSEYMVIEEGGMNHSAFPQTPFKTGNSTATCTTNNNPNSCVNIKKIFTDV

B1: CllTx1-Fc fusion protein (Fc fusion)
chain: ITINVKCTSPQQCLRPCKDRFGQHAGGKCINGKCKCYP
modifications: ends and bridges not checked; also: fused to human IgG1 Fc fragment, limits and linker not given here
notes: mature; also called recombinant CllTx1-Fc fusion protein; not shown: human IgG1 Fc fragment
In the case of B1, the binding result is recorded as “binds”.
